Experimental data published in patent publication US20260176659A1, “IMPROVED METHOD FOR THE PRODUCTION OF NATURAL VANILLIN” (BASE SE, priority 2022, published 2026).
“And” between values parts separate entries of the source, which are not always exact repeats. Identical values can stand only once.

Columns and labels:
Assay type in all cases: biochemical
[1] = Spectrophotometric enzymatic assay: cleaving activity, production of vanillin from coniferyl alcohol at 349 nm; details: for Screening of putative COs: formation of 3a upon 2a cleavage (hit or inactive): spectrophotometric assay
Experimental: Stock solution 200× of coniferyl alcohol (90 mg) was prepared in ethanol (5 mL) and stored at −20° C. From this, a new stock solution 20× of coniferyl alcohol (10 mM) was freshly prepared by 1:10 dilution in Glycine-NaOH (50 mM, pH 9.0). A cuvette containing 0.750 mL Glycine-NaOH (50 mM, pH 9.0) and 0.05 mL of the substrate 20× stock was pre-warmed at 25° C. for 1.5 mins. Then, the reaction was initiated by the addition of 0.2 mL of the enzyme sample. The cleaving […] activity was measured spectrophotometrically following the production of vanillin at 349 nm (ε349=26.7 mM^−1cm^−1 experimentally determined). One unit of activity (U) is defined as the amount of enzyme required to produce 1 μmol of vanillin per min. Agilent Cary 60 UV-Vis Spectrophotometer was used for all the measurements.
Searching for alternative novel alkene cleavage oxygenases (COs) catalysing the formation of vanillin from coniferyl alcohol was performed. A set of 27 sequences and 10 COs from different branches of the phylogenetic tree were selected, named CO-02-11. Two additional enzymes were included, which are located in different clusters of the phylogenetic tree: Lignostillbene dioxygenase from Pseudomonas brassicaceraum (PbLSD, PDB: 5V2D) and aromatic dioxygenase (Ado, CO-01) from Thermothelomyces thermophilus (GenBank ID: XP_003665585). The proteins were recombinantly expressed in E. coli BL21(DE3), following the same protocol developed for IECO. […] Putative COs were screened by spectrophotometric assay, monitoring the formation of 3a upon 2a cleavage. From a set of twelve COs, four positive hits, namely CO-01, CO-03, CO-06 and CO-07 were found. Positive variants were tested in the one pot cascade and compared them with IECO In agreement with the spectrophotometric screening, all four COs converted eugenol 1a to vanillin 3a (Table 8). The first step of the cascade is efficiently performed by EUGO, and the substrate is completely consumed. […] Overall, 70±3% conversion of 1a to vanillin 3a was achieved.

[2] = CO-03 activity in presence of eugenol
Experimental: Stock solutions of coniferyl alcohol (250 mM), eugenol (0-2 M) were prepared in ethanol and stored at −20° C. Unless otherwise specified, the reaction mixtures (0.5 mL) were set up in 1.5 mL glass vials as follows: CO-03 (freeze-dried CFE 5-10 mg/mL) was dissolved in buffer (Glycine-NaOH 50 mM, pH 9.0 or Tris-HCl 50 mM, pH 8.0) with sodium ascorbate (1 mM), FeSO4 (1 mM), bovine liver catalase (Sigma C40, 10 mg/mL) and eugenol (0-100 mM). The final content of ethanol was 5-7% v/v. The reaction was initiated by the addition of coniferyl alcohol (5 mM), and then incubated for 4 hours at 30° C. and 120 rpm (rotary shaker). To improve the oxygenation, the vials were placed horizontally.

[3] = Bioconversion of eugenol to vanillin: one-pot concurrent cascade EUGO + alkene cleavage oxygenase (5 mM scale); details: for Reaction composition after 24 hours 1a (%) / Reaction composition after 24 hours 2a (%) / Reaction composition after 24 hours 3a (%) / Reaction composition after 24 hours 5a (%): Table 8a, CO-XX FD-CFE 1 mg/mL; for Reaction composition after 24 hours 1a (%) / Reaction composition after 24 hours 2a (%) / Reaction composition after 24 hours 3a (%) / Reaction composition after 24 hours 5a (%) / Product distribution after 24 hours 2a (%) / Product distribution after 24 hours 3a (%) / Product distribution after 24 hours 5a (%): EUGO FD-CFE 1 mg/mL, catalase 10 mg/mL, eugenol 5 mM; for Product distribution after 24 hours 2a (%) / Product distribution after 24 hours 3a (%) / Product distribution after 24 hours 5a (%): Table 8b, CO-0X FD-CFE 1 mg/mL; for Conversion of 1a to 3a (%) / Reaction composition at 24 hours (%) 1a / Reaction composition at 24 hours (%) 2a / Reaction composition at 24 hours (%) 3a / Reaction composition at 24 hours (%) 5a: replicates of concurrent cascade with EUGO, 5 mM 1a, SD of four experiments; for Conversion of 1a to 3a (%): 24 h
Experimental: Stock solutions of eugenol (100 mM) were prepared in ethanol or DMSO and stored at −20° C. Unless otherwise stated, the reaction mixtures (0.5 mL) were set up in 1.5 mL glass vials as follows: freeze-dried cell free extract of IECO/CO-XX (3 mg) and EUGO (0.5 mg) were dissolved in the reaction buffer (50 mM glycine-NaOH pH 9.0) containing sodium ascorbate (1 mM), FeSO4 (1 mM) and bovine liver catalase (5 mg, Sigma Aldrich C40). The reaction was initiated by the addition of 0.025 mL eugenol stock (final concentration 5 mM), then incubated at 30° C. and 120 rpm overnight (rotary shaker). The final content of cosolvent was 5% v/v. To improve oxygenation, the vials were placed horizontally. At certain time points, samples (0.2 mL) were quenched with methanol (0.4 mL) and the mixture was centrifuged at 20238 g for 5-10 mins. Finally, the supernatant was analysed by HPLC.
EUGO (0.5 mg CFE), CO-25 (3 mg CFE) and catalase (5 mg, Sigma product #C40) were dissolved in 50 mM Glycine-NaOH pH 9.0 or Tris-HCl pH 8.0 together with FeSO4 (1 mM) and sodium ascorbate (1 mM). Note that the buffer content of the freeze-dried biocatalyst prep was not considered for the assembling of the reaction. The reaction was started by the addition of 5 mM eugenol from a 20× stock in ethanol. The reactions—performed in glass vials—were then incubated at 30° C. and 120 rpm (25 mm shaker). Finally, samples of the reaction mixture were diluted with MeOH and analyzed by HPLC at 280 and 340 nm.

[4] = cascade with EUGO, pH 8.0 and pH 9.0

B1: CO-03: alkene cleavage oxygenase from Sphingomonadales bacterium, SEQ ID NO: 30 (protein, listed as Sphingomonadales bacterium)
chain: MSLFNRNHPVFSGGNAPVRIETDAICLETDGALPDELKGSYFRLTADPQFPPRLRPVLVEADGHVGAFHFRDNGQVDYVGKWVRTERFLRERAARRALFGTYRNRFTDEESVLDSDRTTANTAFMFHHHKFFALKEDGLPYQLDPETLDTIGRYDFGGTVSAKSLSAHPKVDSRTGELITHSGQAKGEGTPDIAYYVFDKNGTKTVERWFEAPYSSIVHDIAITQDWVVLPIMPAVVEEERLRAGGATYWWKPELGNHIAVFRRDGTGDVRWFRTKATYAFHVVNSYQDGDRLIIDVMDAEEFPMWWPRPEQVAALRSGEIKRDKFVAQLTRWTIDLAGDSDDIERELLHPWEAEMPRIDDRFAGQPYRYAVYGVDDPSFPLAHGLAELGVNHNSVGWWDHQTRTLTSWYTGPNSSVGEPVFTPRSPDAPEGDGFILAVVQRLAEQRSELVVIDTRDVAAGPIASVHAPHRLKNAIHNLWIDQEQLNEGGEKA
For B1, the “Specific Activity (mU/mg of FD-CFE)” value ([1]; freeze-dried cell free extract incl. buffer salts, vanillin from coniferyl alcohol) was 7-10 mU/mg, the “Screening of putative COs: formation of 3a upon 2a cleavage (hit or inactive)” value (“Screening of putative COs” for short) [1] was “positive hits” and the cleaving activity retained ([2]; 50 mM 1a, increased biocatalyst amount and modified reaction buffer) was 49%. For the same molecule, the Residual activity ([2]; at 50 mM 1a) was ≤ 10%, the “Reaction composition after 24 hours 1a (%)” value ([3]; pH 8.0) was ≤1% and the “Reaction composition after 24 hours 2a (%)” value ([3]; pH 8.0) was 14%. The “Reaction composition after 24 hours 3a (%)” value ([3]; pH 8.0) was 78%, the “Reaction composition after 24 hours 5a (%)” value ([3]; pH 8.0) was 8% and the “Reaction composition after 24 hours 1a (%)” value ([3]; pH 9.0) was ≤1%. The “Reaction composition after 24 hours 2a (%)” value ([3]; pH 9.0) was 8%, the “Reaction composition after 24 hours 3a (%)” value ([3]; pH 9.0) was 81% and the “Reaction composition after 24 hours 5a (%)” value ([3]; pH 9.0) was 11%. The “Product distribution after 24 hours 2a (%)” value ([3]; pH 8.0) was 19.6%, the “Product distribution after 24 hours 3a (%)” value ([3]; pH 8.0) was 72.0% and the “Product distribution after 24 hours 5a (%)” value ([3]; pH 8.0) was 8.4%. The “Product distribution after 24 hours 2a (%)” value ([3]; pH 9.0) was 11.9%, the “Product distribution after 24 hours 3a (%)” value ([3]; pH 9.0) was 74.9% and the “Product distribution after 24 hours 5a (%)” value ([3]; pH 9.0) was 13.2%. For the same molecule, the “amount of 3a in reaction mixture” value [3, 4] was 78-81%, the “remaining 2 and its oxidation product 5a in the reaction mixture” value [3, 4] was ~20% and the “Conversion of 1a to 3a (%)” value ([3]; pH 8.0) was 70 ± 3%. For the same molecule, the “Reaction composition at 24 hours (%) 1a” value ([3]; pH 8.0) was 1≤ %, the “Reaction composition at 24 hours (%) 2a” value ([3]; pH 8.0) was 14 ± 3% and the “Reaction composition at 24 hours (%) 3a” value ([3]; pH 8.0) was 80 ± 2%. For the same molecule, the “Reaction composition at 24 hours (%) 5a” value ([3]; pH 8.0) was 9 ± 1%, the “Conversion of 1a to 3a (%)” value ([3]; pH 9.0) was 70 ± 3% and the “Reaction composition at 24 hours (%) 1a” value ([3]; pH 9.0) was 1≤ %. For the same molecule, the “Reaction composition at 24 hours (%) 2a” value ([3]; pH 9.0) was 7 ± 2%, the “Reaction composition at 24 hours (%) 3a” value ([3]; pH 9.0) was 83 ± 3% and the “Reaction composition at 24 hours (%) 5a” value ([3]; pH 9.0) was 10 ± 1%. The “overall conversion of 1a to vanillin 3a in the 2-step cascade” value ([3]; with EUGO, 5 mM substrate concentration) was 70±3% and 70%.

B2: CO-06: alkene cleavage oxygenase, Novosphingobium sp., SEQ ID NO: 38 (protein, listed as Novosphingobium sp.)
chain: MNIRFPNNDFTSFEAPMRAEIDLKGLEVIQGEVPRQLSGGFFRLIGDRKWPAFVENDIFMLGEDGMASCFYFKDGQVDFKMRYVRTPRFVAEEKAGRALFGHYRNPFSDDPSVAGLSRGTANVTVLVHAGKMLALKEDSPAIELDPFTLETIGEYDWGGVVTAKAITAHPKIDPKTGELVFFGYCAAGPATRDIAYYEADAEGRIIHETWFEAPYTCMVHDIMVTENYVVFPITPLRHELEWIERNEPAFKWDPSEDVYLGVLPRKGKGEQVRWFKGPNQCHGHTVGAFDDGRFIYADNTFSKRSFFHFFPNTDGSEFNPADAMPFIKRLVIDMESNDDSFTEQQMFGYPCELPRIDTRFETMPYNFVTMNLLDVPEQERIGMGFQWVATMDINGQKPAKIYYAGHDCSIGEPQFVPRSDDAAEGDGYILTVVGKHREMRSELLILDAGDITAPPIATVALPFRLRSTGHGYWYGTRQLRGETNIIGAW
In the case of B2, the “Screening of putative COs” value [1] is reported as “positive hits”, the “Reaction composition after 24 hours 1a (%)” value ([3]; pH 8.0) is reported as 51% and the “Reaction composition after 24 hours 2a (%)” value ([3]; pH 8.0) is reported as 79%. For the same molecule, the “Reaction composition after 24 hours 3a (%)” value ([3]; pH 8.0) was 5%, the “Reaction composition after 24 hours 5a (%)” value ([3]; pH 8.0) was 16% and the “Reaction composition after 24 hours 1a (%)” value ([3]; pH 9.0) was ≤1%. For the same molecule, the “Reaction composition after 24 hours 2a (%)” value ([3]; pH 9.0) was 71%, the “Reaction composition after 24 hours 3a (%)” value ([3]; pH 9.0) was 6% and the “Reaction composition after 24 hours 5a (%)” value ([3]; pH 9.0) was 23%.

B3: CO-07: alkene cleavage oxygenase, Thermopolyspora flexuosa, SEQ ID NO: 40 (protein, listed as Thermopolyspora flexuosa)
chain: MVWFPPPKDPFDAPMRVEADIRGVQVTQGEVPEHLDGTYYRCVSDRQWPSYVENDLELFNSDGMIISFRFHKGRVDFKSRYVRTPRFVAEEKAGRALFGAYRNPFDDDPSVAGISRGLANTNVFFHGGKLYASKEDSPPILIDPDTLETIGEYDFEGALTSRTATAHPKFDPVTGEMVFFGYEAKGPGTPDIAYYEADPSGRIIHEAWLEAPYTSMVHDWAVTQNFVIFPIIPLRSDIEWIKKGQSYFQWDPYEDVYLGVMPRKGTAKDLRWYRGSNRFASHIMGAYDDGRYVYIDTPVGQTNYFPWFPDITGAPYDPERSKGYLSRWTIDTQGESDGFTETRLSDLPGEFPRMDDRQETLPYHWGIMLLTDVPGRNAPGGGFRWLMGIDLKTGRKQIYYPGDHCTLGEAIFVPAAPDAPPGVGYVLTVVARRKEMRSDLVLLDAQRLDGEPVCTLSLPMRIRMGVHGNWVSAAELAGRTD
With B3 the “Screening of putative COs” value [1] was “positive hits”, the “Reaction composition after 24 hours 1a (%)” value ([3]; pH 8.0) was 51% and the “Reaction composition after 24 hours 2a (%)” value ([3]; pH 8.0) was 61%. For the same molecule, the “Reaction composition after 24 hours 3a (%)” value ([3]; pH 8.0) was 21%, the “Reaction composition after 24 hours 5a (%)” value ([3]; pH 8.0) was 18% and the “Reaction composition after 24 hours 1a (%)” value ([3]; pH 9.0) was 51%. The “Reaction composition after 24 hours 2a (%)” value ([3]; pH 9.0) was 50%, the “Reaction composition after 24 hours 3a (%)” value ([3]; pH 9.0) was 27% and the “Reaction composition after 24 hours 5a (%)” value ([3]; pH 9.0) was 23%.
